Tests used:
Type in all cases: cell-based, human
[1] = tested on: HUVECs; assay: Scratch (wound healing) assay, endothelial cell migration
Method: Confluent HUVEC monolayers were grown in 6-well plates. Cells were starved 18 hours in EBM-2 medium with 1% FBS. A horizontal wound was created using a sterile 200 μl pipette tip. Next, the cells were washed with EBM2 at 37° C. and incubated in EBM-2 supplemented with VEGF-A (25 ng/ml) or DAND5 (60 ng/ml) at 37° C. for 16 hours. Pictures of scratch wounds were taken just before stimulation (time 0) and after 16 h. Migration % was calculated using ImageJ™ software.
To evaluate the cellular mechanisms underlying the inhibitory effects of DAND5 on endothelial cells sprouting, we assessed the effects of DAND5 on endothelial cell migration and proliferation. Endothelial cell migration plays an essential role in neovascularization, as endothelial tip cells will need to migrate in response to VEGF, and constitutes one of the first steps of the angiogenic response. To address the effects of DAND5 on EC migration, HUVECs were subjected to a wound healing assay. Briefly, a scratch was performed on a confluent monolayer of HUVECs, and wound closure was evaluated at the time of the scratch and again after […].

[2] = tested on: Wnt signaling; assay: Canonical Wnt signaling in HUVECs (immunoblotting, β-catenin immunofluorescence)
Method: FIG. 12 is a panel with a schematic, pictures showing that Dand5 reduces canonical Wnt signaling in HUVECs. HUVECs were plated to confluence and received a 2 h scratch in the presence or absence of Dand5 ([…]) or IWR1 (3 μM). β-catenin (green) localization was examined by immunofluorescence with phalloidin and DAPI (nuclei) to identify the cell boundaries and nucleus. […] Scale bars, […]).
Cells were washed with cold PBS and extracted in Laemmli's buffer, followed by sonication. Samples were run on SDS-PAGE gels and transferred onto nitrocellulose membranes. Membranes were blocked with 5% Bovine Serum Albumin (BSA) and probed with primary antibodies overnight at 4° C.: beta-Catenin (Cell Signaling Technology), phospho-beta-catenin (Cell Signaling Technology), Axin2 (Cell Signaling Technology), beta-Actin (Santa Cruz Technologies). HRP-conjugated secondary antibodies (Vector Laboratories) were used to detect primary antibodies.
We next evaluated the molecular mechanisms underlying the effects of DAND5 on endothelial cells. […] Wnt signaling regulates fundamental aspects of vascular development, including cell fate specification, proliferation and survival. […] HUVECs were treated for up to 24 hours with DAND5 or IWR-1, an inhibitor of Wnt canonical signaling. Protein extracts were harvested and subjected to immunoblotting against downstream effectors of Wnt signaling. […] The levels of β-catenin at different subcellular localizations are regulated by a variety of processes including site-specific phosphorylation of β-catenin. In the absence of an active Wnt signaling, β-catenin localization at cellular junctions is reduced and cytoplasmic β-catenin associates with the destruction complex (6).

[3] = tested on: mitochondrial metabolism in HUVECs; assay: NAD+/NADH cycling, ATP, glucose and lactate assays in HUVECs
Method: HUVECs plated into 100 mm dishes were treated with COCO for various time points. NAD+ and NADH were extracted using ice cold alkali (0.5M NaOH, 1 mM EDTA) and acidic buffers (0.1M HCl) respectively. Extracts were heated at 60° C. for 30 min and buffers were neutralized with either the NADH (100 mM Tris-HCl pH 8.1, 0.05M HCl) or NAD+(0.4M Tris) neutralization buffers. To attain measurable quantities of NAD+ or NADH, an amplifying cycling assay was performed. Extracts and NAD+ standards were incubated with cycling reagent (67 mM Tris-HCl pH 8, 200 mM EtOH, 1.3 mM beta-mercaptoethanol, 0.01% BSA, 2 mM oxaloacetic acid, 0.5 μg/mL malate dehydrogenase, 5 μg/mL alcohol dehydrogenase) for 1 hour at room temperature. All samples were heated for 5 min at 100 C to stop enzymatic reactions then cooled on ice. For detection, extracts were incubated in an indicator buffer (50 mM 2-amino-2-methyl-propanol pH 9.9, 200 μM NAD+, 10 mM glutamate, 0.04% BSA, 5 μg/mL malate dehydrogenase, 2 μg/mL glutamate oxaloacetate transaminase) for 10 min at room temperature. Then 100 μL if sample was transferred to a black 96-well plate. Fluorescence was detected using a plate reader (TECAN) at an excitation of 365 nm and emission of 460 nm. Standard curves were generated and the concentration of NAD+ and NADH were calculated from the standard curve (references: Kato T., et al. Analytical Biochemistry 53, 86-97 (1973); Lin S., et al, JBC. Vol 276, No. 38, 36000-36007 (2001)).
ATP detection: HUVECs were plated into 100 mm dishes and treated with COCO for various time points. ATP was measured by luminescence (ATP Detection Assay Kit; Cayman Chemicals). Metabolite measurements: HUVECs were cultured for up to 48 hours in the presence or absence of COCO. Culture media was collected at 1 h, 3 h, 6 h, 12 h, 24 h and 48 h, centrifuged at 12000 rpm for 5 min, aliquoted and stored at −80 C. Media was analyzed for glucose concentration using a BioProfiler 400 Analyzer (BioNova). For measurements of lactate, the culture media was analyzed using the Lactate Colorimetric/Fluorometric Assay Kit (BioVision, K607) as per the manufacturer's instructions.
We exposed or not HUVECs to recombinant DAND5 and measured the concentration of free radicals using DCFDA and MitoSoxRed™. […] To further test this, we measure the NAD+/NADH ratio in cells treated or not with DAND5. […] Likewise, glucose uptake was reduced and lactate levels were increased in DAND5-treated HUVECs after 1 h (FIG. 8E, lower panel).

[4] = HUVECs treated for up to 24 hours, immunoblotting

B1: DAND5: human recombinant DAND5/COCO biologically active fragment produced in E. coli, predicted 18.2 kDa monomer, R&D systems 3047-CC-050 (protein)
chain: MRPEPQSPRPQSWAAANQTWALGPGALPPLVPASALGSWKAFLGLQKARQLGMGRLQRGQDEVAAVTLPLNPQEVIQGMCKAVPFVQVFSRPGCSAIRLRNHLCFGHCSSLYIPGSDPTPLVLCNSCMPARKRWAPVVLWCLTGSSASRRRVKISTMLIEGCHCSPKA
polarization of the Golgi apparatus towards the leading edge ([1]; cells at the wound edge): did not significantly affect polarization of the Golgi apparatus towards the leading edge
wound closure (VEGF-induced cell migration) ([1]; confluent HUVEC monolayer, DAND5 60 ng/ml, evaluated after 18 hours): significantly delayed wound closure compared to control treatment
levels of Axin2 [2, 4]: increased levels of Axin2
levels of phosphorylated beta-catenin [2, 4]: increased levels of phosphorylated beta-catenin
levels of total beta-catenin [2, 4]: decreased levels of total beta-catenin
cytoplasmic β-catenin ([2]; confluent HUVECs, 2 h scratch, Dand5 60n/mL or IWR1 3 μM): increased cytoplasmic β-catenin
β-catenin subcellular localization ([2]; staining of HUVECs cultured in the presence of DAND5): decreased membrane localization and increased internalization of β-catenin in the cytoplasm
NAD+/NADH ratio ([3]; HUVECs exposed to DAND5): decreased
glucose uptake ([3]; HUVECs, after 1 h): reduced
lactate levels ([3]; HUVECs, after 1 h): increased
ATP levels ([3]; HUVECs, after 1 h of treatment): reduced
ATP levels ([3]; HUVECs, at 1, 6 and 24 hours): reduced
